Reference: PMC3951674
Where two headings read alike, the source gives them in different places.

How the values were obtained:
[1] = target: L43A ubiquitin (UniProt P0CG48); test: NMR titration
[2] = target: L43A ubiquitin (UniProt P0CG48); test: NMR titration; remark: listed apart in the source
[3] = target: L43A ubiquitin (UniProt P0CG48); test: 15N T1 relaxation

Substance | stoichiometry N [1] | Kd [1] [µM] | Kd [2] [µM] | stoichiometry N [3]
UBA2 domain of hHR23a (from UniProt P54725 1-363) (domain or fragment) | 1 | – | – | –
ubiquilin-1 UBA domain (UQ1-UBA) construct (from UniProt Q9UMX0 541-586) (domain or fragment) | – | 26 | 28 | 1
